# In the DeepSol protein solubility set:
# Assay: soluble on expression in E. coli; label from the status in PepcDB or PDB records
row,Sequence,soluble on expression in E. coli
1,MLHAETEVIVEDEPPILNLSRYRDEDRIQMDPFGDDEEEDDGFMDGQPPDLEMNLPSKQRRVRTRKPMDTDGSIDDGDKEKKAMKIINPAAATPSKMFRVQGERVISKALAERQYHVKLFEDEVEMTENGDCYATVISGCLAYLLRKERIIELLTNETEIAMMYGDKKKKYKKKISSKNKENCQNFKLLSEKSVRKKKQKSTVPIFSREGGWLLDKPPRLPPLVPHKACFAFYVDGSKIMSIKDVSNDDLKPWSSTGGEQHFNDPVIKPNVRRHPVARLNGRLQSVKGDPRIAELHLTEYSAWLPRLLRLRKKIFYLSRDGQIYGNVLILYDYTCPGEIPPIVNLPHGNDYLRHAMVDPTDPHVSLDLDDPGSTPFEDEIVEGPRGGMFLRVKLAKLGWAHNKKLLLRYLVNEPELLSQSNCLNRRTPYLPPLIPTTGVFVYFVPANFVANQINHTGDGLSPWTVNPASEGPSPRVRSTRRAIVQDDNGQFQMAKDTAGGWHSSQLCLVETMSVLARCPRLRKRLIYIQRNNTITIGNVCYIYEYVRDGPVPCPYVKPPGTPGRGVGGSKWIDDQKKIDTSQDPSTSSAAPNDEEQFIDVEDLEVVEEEVIGHHNDSLDQIQLQHDQHQQQQHQLMQDVSIAQDAQGHLLDDDLLDMSQEDVLNNGYDLEFDDDPLTQQENPAPYFENPRQLETGHIYLTVRHKRVASTFEAVLEWIANTNVVEERGLLNYAKPGHPPIVRNSRAYAFFVAGTAIFPHDINRDDFSPWSHNGNAQNPTCYRTKVRKVGVICDELGSQFQVLHGSQGKQPKKSDGNRRSPKIPKSAYFL,not soluble
2,MLIAIEGVDGAGKRTLVEKLSGAFRAAGRSVATLAFPRYGQSVAADIAAEALHGEHGDLASSVYAMATLFALDRAGAVHTIQGLCRGYDVVILDRYVASNAAYSAARLHENAAGKAAAWVQRIEFARLGLPKPDWQVLLAVSAELAGERSRGRAQRDPGRARDNYERDAELQQRTGAVYAELAAQGWGGRWLVVGADVDPGRLAATLAPPDVPS,soluble
3,MLIALTGTPGTGKSSVAERLRERGYKVATVVELAEKHGCIIDEEDGEIVIDVESLAARIDFEGIVEGHLSHLLKPDVAIVLRCNPAVLRERLKGRNWSEEKLLENLEAEMLDVILVEALEHASEVYEIDTTEMSLEEVIEAVEAIIRGDREARKRYKPGGIDWLSELEDRIEEFMRKVLEHHHHHH,soluble
4,MLIAQEQEQSSISLLAEVSRAVNNEEDISKVLRLVLFILSEHMNMLRGMVTILNRTTGEMVINESFGLTDEQRQLARYKVGEGIIGQVVKTGRPSVVPRINEEPLFLDRTQSRAEENKEELCFICVPIKVGREVIGTLSADRRISVPAENGDKKLWRKSDRIDVLQYYVDLLSIIAAMIAQAVRIKQLDDEKS,not soluble
5,MLIGVISDTHIPDRASEIPEAVFDAFRDVELILHAGDLTSPDILTELETLAPVECVQGNMDRHYGIETPRSRLFEIESFRVGLIHGEVYPRGDTQQLRYLGLELGADVLISGHTHQPFIRELEDMVLLNPGSPTVPRLTDPSVMVLRIDGEKLDAEIIRTGAPVCRSLNFRR,not soluble
6,MLIILTGLPSVGKSTFSKAFSKKMAEKNIDNIILGTDLIRESFPVWKESYEEFIRDSNNYLIKEALENKFSVIVDDTNYYNSKRRDLMNIAKECDTNYVTIYLKAPLNLLLKRNIERGQKIPNEVIKNMYEKFDTPGTKYAWDLPDITVDTTEKIDYNEILNEILEINENKNLKIEEDKIPKSEPVESDLVKIDSLTRNIVGNLIKTGKIDKKDIKLLSEIRKSFLKDCKKIESEKLDFEKIEKDFLDYLNKNLK,not soluble
7,MLILNQRQQELLDMVKRESYVSVEKLADHFSVTRQTIRRDIALLAEHQLLQRYHGGASVLSSVENVAYQARQVLCIEEKRRIAACVARHIPDNASLFINLGTTTEEVAKALHRHRGLRVITNNLHVAEQMCDYPDCEVIVLGGSLRKRDRGLTGEATVQMIRQFRVDYGIIGVSSIESDGTLRDYDYREVRTTEAIIQQSRQVFLAADHSKFDRPALVELGRLSQIAALFTDKPVPPAIAHVMQEAGTQLHVAELEHHHHHH,soluble
8,MLKANVFCAGPVEALILDWAGTTIDFGSLAPVYAFMELFKQEGIEVTQAEAREPMGTEKSEHIRRMLGNSRIANAWLSIKGQASNEEDIKRLYDLFAPIQTRIVAQRSQLIPGWKEVFDKLIAQGIKVGGNTGYGPGMMAPALIAAKEQGYTPASTVFATDVVRGRPFPDMALKVALELEVGHVNGCIKVDDTLPGIEEGLRAGMWTVGVSCSGNEVGLDREDWQALSSDEQQSYRQHAEQRLFNAGAHYVIDSVADLETVITDVNRRLARGEKP,soluble
9,MLKEHSKKQHLRREVQEKLKNEAIVAAQTLSTAVVDHLNAKVAQAYGNQKRLDVEAKRFENNSAALAKQTEQWLFITEGLNYALKEIGDVENWSKTIENDMKIITETLRRAYEAKNPPLPPNQANPASH,not soluble
10,MLKHDLDYLELLSESFPTATEAATEIINLEAILNLPKGTEHFLADIHGEYEAFIHVLKNASGSIRRKVDEVFGGQLRQNQKRELCTLIYYPREKLELVKQSDERMEDWYMVTLNQLIKVCQKAAEKYTRSKVRKTLPPKYSYIIQELLHEDGVNPNKSAYISSIFSSIISTGCADDFIIAISETIQRLVIDHLHVVGDVFDRGPGAHIIMDTLMKYHHFDIQWGNHDMLWMGAAVGNASCMANVVRIALRYANLDTLESGYGINLLPLARFAMDTYADDPCTVFKPKLAQADQTYDDKSVYLISQMHKAISIIQFKLEHQIIARHPEYKMDNRDLFHLVNFTDGTIKLSSGVYPMLDMNFPTVDPADPYALTEQEQNIVDRLMGCFMRSEKLQNHLKCLYRHGSMYLTYNMNLLYHASIPLNKDKSLKKVRVGDKTYAGRELLDKVEEMIRTAYVAPEKSDQRLAAVDYMWYLWCGPDSPLFDKAMMTTFERYFIEDKATHHEEKGYYYVYRQEKAVCEMILKEFGLEGPDTHIINGHVPVKAKKGELPIGAEGKLMLIDGGFSKAYQSSTGIAGYTLIFNSQGLHLVQHEPFSSTRKAIEEMEDIKSITVVREVTSHRMLVKDTDNGHLLSKQVENLKKLLQAYSYGLIKERKK,not soluble
11,MLKHLLPLGTRDEFGRRARTKQHLIAVIQAHFKQRGLAPIATPLLENEAVFDPYQMGNYQLYRLFGNDGRTLVLRPDMTLPVARFISATNVPLPQKFGYVGDIFRVSRQLSGSYNQITQAGVELVGYASLKAEFECLTIANQLSSELIADAVEIELGDAQFAQRVVASLTGDEGEQQAILTALFDKQVPRYTKLIAKYRAQPLYDFLKAWPRLFGRPECIFKELAAAPLPETVQPSLKRLQTVVAWMQQTMPEQVISVDLSSQAPQKYYTGLTFRGYSQAGAGYLFSGGRYDKLLTNFQAEAEPAVGMGLNVDLLTTLATDQQTAYAEQLIYFEPEQWSQAEAYLAKQPHAILSLADDLAGARIEAQRLNAQLIDLTGGMTND,not soluble
12,MLKLKFNEEGLIPVIAQDYRTGEVRMLAYANEEAIKKTLETGYAHYYSRSRKKIWKKGETSGELQKVIEVRVDCDEDALIYVIEQEKDRACHTGERNCFFRDIEGNKVEKPLPFEVLPRLQDVIREKIERKEENSYTAKLVSQGKERVFQKFGEEAVETLIALMKGEKEEVIYESADMLYTFLVSLSVSGIDIKEVMEELIRRFK,soluble
13,MLKLRFPLPVFRNAREIANGRNARMALKGLVANRAALIISPSFGSSQYFEQVVRLINAQSVRVIERSWQGEPSVEELSGVIGELEDFKPDYILALGGGSIIDGAKLAWLFYECPTLESELLYRPFALPSLRGRAKFAAIPTTVGAGSEVSSAAVMLDSVTNSKKAVVTHDFLPDLVILDPDLVSEVPPKVLKTTVADALSHAIEGYVSLIDNPLMNTFAEQAVSIIYRYRHQFSNDNWSSEMLSELQQAAMFAGWVQNHCIVGLSHAIAHQLGTFNIGHGLANGLLMPAVINFNYREHTAATKYEQLIYKSGLPNKEALLELFEVLVGEQKTDMHFSEQQLTTIAENALLDPAAKSNPVRFTENDVKEIVKQCL,not soluble
14,MLKRLGIVGFGASAIGFINGLIESGKVKDYRITVLERGKDYSHNTISGVRMDGKIFISHGMGGEIYIPLEIQAKTVEFYLKFSGYTPTVDKRVGIVNYLKSFERDGRKIEFGESFSDEEIYKRFYHHGFEPVKSYFFHLGTDILKETNKNIYEYFSSFENIEFLFGTTVEDVEFGPPHRVHTNRGDFEFDELVIAVGRSGHRLMERLKEKYPQLVRPNQFVDIGVRYELPNHVMDPFSDMYEVKVRYRTKTGYICRIFCQNPAGKVTLEKYEDFTTVNGYSDSLHKTENTNFAILVTTRFTEPFKDPTGYGVNLAKLANILAGDKEKVILQTYGDFKEFRRTKRLGRVHPTLDSESYILGDANLVFPSKIRESLVDFVENLEKVIPGASYFDNLLYAVEVKFYTNKFLNDIVEGLHVVGDCSGWTRSIQYATSMGYMRAVGMKIQSLLEHHHHHH,not soluble
15,MLKTAYQRSPKQELAKNTPFFNETDLKHSFIIDFENQEFIHHQAEPLNYLFYLIKGKAKILKTERNGRQSIVQFLTAGDLIGDLTLVQAETITKDVIALGETCCLAVPLAYAETVLKNKVLFMQQLSHYLGKKMLQRVDHFTTNQTYELSYRLAELLLVAANHEDVYKEKHTEIAEYLGVSYRHLIYTFKQFRERGFIQKQGTAYHINRLALHSFVQKMKS,not soluble
16,MLLDSIFFRTHPDWIVCCRFLQGVGTDREKREENGRKKTVKITIFSDCMLWANPISLCIRHRAVFNNRNLRMDFSSYTILCLNRLDAWIPAFGIPK,not soluble
17,MLLHLPNGDVLCVWFGGTQEGIADISIYMSRLVKDSGSWSKAAKLSEDATRSEQNPVLFLAPDNVLWLLYTAQKSGNQDTAIVRYRQSTDLGATWGEIGTLLDQPGTFIRQPITVLENGDWLLPVFYCRVQPGEKWVGNDDDSAVKISSDQGKTWREYPVPNSTGCVHMNITPLQDGTLLALYRSRWADFIYQSRSTDGGKTWSEPVATDLPNNNSSIQVTTLKNGHLALVFNHMSAADATDRRLSLYDELEHHHHHH,soluble
18,MLLIDKGHDIYKRNCPILQKKIEKCPPPAGKKDYAGCVPACSITNGFGGAGAYSDGKFNITSEFGGWMTDYLPASTVLELIRYVDEINLKHGATTSITDPMTDKVKEIERRAYAAGLKLLRAYVRHLGTEQNLAILQSIFEYLRERITMRFKTEVDDIVTERTEDGHEVKGVVLKNGETLTAEKVVIAPGRDGSVWLSKLLRKRRLRMINNQVDIGVRVETSNIVMQEINEHLYEGKFIFNTSVGTQVRTFCSNPSGHVVVENHSGIMLANGHAYKDPKLGSSNTNFALLVSHKFADPFDKPNEYAHEISRLANALSNGGIIVQKYGDILKGRRSTEKRIKEGFIEPTLKEAVPGDLGLVLPYNTMKSLIEMTEALNHVTPGLASEHTLFYGVEAKFYSARPKLNDRFETEIAGLYVGGDGAGITRGLAQASACGVWIARDIVEKLTRLEHHHHHH,not soluble
19,MLLLTRSPTAWHRLSQLKPPVLPGTLGGQALHLRSWLLSRQGPAETGGQGQPQGPGLRTRLLITGLFGAGLGGAWLALRAEKERLQQQKRTEALRQAAVGQGDFHLLDHRGRARCKADFRGQWVLMYFGFTHCPDICPDELEKLVQVVRQLEAEPGLPPVQPVFITVDPERDDVEAMARYVQDFHPRLLGLTGSTKQVAQASHSYRVYYNAGPKDEDQDYIVDHSIAIYLLNPDGLFTDYYGRSRSAEQISDSVRRHMAAFRSVLS,not soluble
20,MLLMRRFAFLTSSVYFKYIPIYSQYHYSSQFPINMNPKKVAQLPVHNKSTLPPQEIIDLFKITFLEELYPKDQDNEKSPLTEQIQAVKSDLYNRDYNAAFNNDSKRIAYCCRWSPSRATSYASVFAHFPELLKIIRCEIDDKDSNVLCIGGGAGGELVALASIFTLSRDFSSKFASALKIDNEVNKKPRNLNIQLVDIADWSTVVEKLTATIKSKWLYGDSEAESFNVNFTHKDCLQMTEPQDIKIYQGLDLITLLFTTNELFTQKKVESIKFLQRLNENCAPGCHLLILESAGSYSHITINNKKFPIQFLIDTILVGNRKDKGTTGPWSLVSENDSIWYRMDPKLDYSIPLENMRFFYRLYVKN,not soluble
